# Measurements reported in patent US20190077860A1 (EISAI R AND D MANAGEMENT, published 2019).
# Tests used:
# Assay in all cases: ELISA
# [1] = biological target: T1, human EphA10 extracellular region-SEAP-His protein (human, UniProt Q5JZY3 34-565)
# T1 construct: extracellular domain; also called hEphA10-SEAP-His
# T1 sequence (looked up): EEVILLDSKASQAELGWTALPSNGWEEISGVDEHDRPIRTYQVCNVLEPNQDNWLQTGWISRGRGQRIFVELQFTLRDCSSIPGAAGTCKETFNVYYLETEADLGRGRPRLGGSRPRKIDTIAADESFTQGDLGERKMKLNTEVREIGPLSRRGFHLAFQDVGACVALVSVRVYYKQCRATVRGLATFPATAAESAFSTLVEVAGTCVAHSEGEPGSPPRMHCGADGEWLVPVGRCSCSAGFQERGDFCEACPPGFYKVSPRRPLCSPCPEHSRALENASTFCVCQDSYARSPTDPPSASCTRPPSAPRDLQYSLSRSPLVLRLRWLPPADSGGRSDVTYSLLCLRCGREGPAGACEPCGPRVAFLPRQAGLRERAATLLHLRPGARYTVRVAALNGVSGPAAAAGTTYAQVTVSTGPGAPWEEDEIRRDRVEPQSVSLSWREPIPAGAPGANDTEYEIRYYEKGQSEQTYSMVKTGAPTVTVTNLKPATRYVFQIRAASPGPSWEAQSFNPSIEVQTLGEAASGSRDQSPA
# [2] = biological target: T2, human EphA2 extracellular region-SEAP-His protein (human, UniProt P29317 24-537)
# T2 construct: extracellular domain; also called hEphA2-SEAP-His
# T2 sequence (P29317 24-537): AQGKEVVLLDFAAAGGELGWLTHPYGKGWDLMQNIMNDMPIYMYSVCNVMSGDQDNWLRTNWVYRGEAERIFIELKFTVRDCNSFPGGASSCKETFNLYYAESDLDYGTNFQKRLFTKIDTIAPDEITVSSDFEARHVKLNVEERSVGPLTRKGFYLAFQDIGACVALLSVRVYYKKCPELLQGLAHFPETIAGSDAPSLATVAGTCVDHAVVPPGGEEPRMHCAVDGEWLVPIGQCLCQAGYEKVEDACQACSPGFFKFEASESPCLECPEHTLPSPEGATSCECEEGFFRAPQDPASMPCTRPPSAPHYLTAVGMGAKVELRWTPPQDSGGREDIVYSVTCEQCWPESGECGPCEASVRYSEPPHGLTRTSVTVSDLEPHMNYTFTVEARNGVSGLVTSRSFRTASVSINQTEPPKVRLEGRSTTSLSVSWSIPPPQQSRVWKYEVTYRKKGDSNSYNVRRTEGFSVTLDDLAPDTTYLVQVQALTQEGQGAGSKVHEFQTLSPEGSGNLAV
# [3] = biological target: T3, human EphB2 extracellular region-SEAP-His protein (human, UniProt P29323 19-543)
# T3 construct: extracellular domain; also called hEphB2-SEAP-His
# T3 sequence (looked up): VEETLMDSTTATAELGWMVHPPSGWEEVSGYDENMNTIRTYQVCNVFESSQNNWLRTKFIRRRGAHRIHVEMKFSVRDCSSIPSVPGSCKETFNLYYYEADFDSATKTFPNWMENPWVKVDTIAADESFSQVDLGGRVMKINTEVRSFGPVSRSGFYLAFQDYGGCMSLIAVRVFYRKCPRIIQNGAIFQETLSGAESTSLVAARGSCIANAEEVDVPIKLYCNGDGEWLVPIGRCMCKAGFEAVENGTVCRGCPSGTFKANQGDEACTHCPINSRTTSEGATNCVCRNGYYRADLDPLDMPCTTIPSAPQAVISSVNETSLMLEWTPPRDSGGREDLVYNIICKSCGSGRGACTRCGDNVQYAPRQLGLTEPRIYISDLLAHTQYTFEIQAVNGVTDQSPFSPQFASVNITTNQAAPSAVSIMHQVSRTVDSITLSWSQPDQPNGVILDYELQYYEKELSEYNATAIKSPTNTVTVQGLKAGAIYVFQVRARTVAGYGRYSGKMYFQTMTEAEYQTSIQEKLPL
# [4] = biological target: T4, human EphA6 extracellular region-SEAP-His protein (human, UniProt Q9UF33 23-550)
# T4 construct: extracellular domain; also called hEphA6-SEAP-His
# T4 sequence (looked up): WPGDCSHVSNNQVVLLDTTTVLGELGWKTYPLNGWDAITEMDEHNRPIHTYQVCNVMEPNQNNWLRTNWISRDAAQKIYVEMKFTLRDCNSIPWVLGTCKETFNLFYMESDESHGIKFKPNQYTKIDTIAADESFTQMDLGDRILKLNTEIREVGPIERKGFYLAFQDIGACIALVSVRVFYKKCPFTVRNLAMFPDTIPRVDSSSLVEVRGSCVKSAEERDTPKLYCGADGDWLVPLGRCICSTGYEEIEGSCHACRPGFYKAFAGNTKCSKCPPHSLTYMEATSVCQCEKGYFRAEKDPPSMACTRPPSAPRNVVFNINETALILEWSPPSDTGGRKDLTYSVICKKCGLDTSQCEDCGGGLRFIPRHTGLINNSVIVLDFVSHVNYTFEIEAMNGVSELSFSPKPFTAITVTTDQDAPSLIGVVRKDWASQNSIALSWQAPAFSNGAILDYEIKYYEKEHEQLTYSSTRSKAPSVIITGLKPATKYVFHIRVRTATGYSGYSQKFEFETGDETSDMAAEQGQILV
# [5] = biological target: T5, human EphB6 extracellular region-SEAP-His protein (human, UniProt O15197 32-594)
# T5 construct: extracellular domain; also called hEphB6-SEAP-His
# T5 sequence (looked up): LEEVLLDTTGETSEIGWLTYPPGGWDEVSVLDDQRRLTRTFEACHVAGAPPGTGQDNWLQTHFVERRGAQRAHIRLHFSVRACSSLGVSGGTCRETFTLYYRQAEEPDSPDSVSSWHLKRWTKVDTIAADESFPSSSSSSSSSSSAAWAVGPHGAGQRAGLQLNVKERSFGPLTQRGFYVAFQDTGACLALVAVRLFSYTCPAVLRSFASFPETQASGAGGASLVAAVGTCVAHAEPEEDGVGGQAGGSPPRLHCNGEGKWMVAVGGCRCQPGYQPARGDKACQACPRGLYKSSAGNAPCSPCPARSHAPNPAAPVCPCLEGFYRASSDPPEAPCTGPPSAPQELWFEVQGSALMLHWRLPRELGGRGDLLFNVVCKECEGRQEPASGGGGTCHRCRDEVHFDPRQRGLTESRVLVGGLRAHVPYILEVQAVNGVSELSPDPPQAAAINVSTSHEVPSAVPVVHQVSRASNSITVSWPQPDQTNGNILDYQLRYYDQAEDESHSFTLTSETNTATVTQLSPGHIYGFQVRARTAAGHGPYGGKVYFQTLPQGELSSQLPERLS
# [6] = biological target: SEAP-His (UniProt P05187 23-511)
# SEAP-His, sequence (P05187 23-511): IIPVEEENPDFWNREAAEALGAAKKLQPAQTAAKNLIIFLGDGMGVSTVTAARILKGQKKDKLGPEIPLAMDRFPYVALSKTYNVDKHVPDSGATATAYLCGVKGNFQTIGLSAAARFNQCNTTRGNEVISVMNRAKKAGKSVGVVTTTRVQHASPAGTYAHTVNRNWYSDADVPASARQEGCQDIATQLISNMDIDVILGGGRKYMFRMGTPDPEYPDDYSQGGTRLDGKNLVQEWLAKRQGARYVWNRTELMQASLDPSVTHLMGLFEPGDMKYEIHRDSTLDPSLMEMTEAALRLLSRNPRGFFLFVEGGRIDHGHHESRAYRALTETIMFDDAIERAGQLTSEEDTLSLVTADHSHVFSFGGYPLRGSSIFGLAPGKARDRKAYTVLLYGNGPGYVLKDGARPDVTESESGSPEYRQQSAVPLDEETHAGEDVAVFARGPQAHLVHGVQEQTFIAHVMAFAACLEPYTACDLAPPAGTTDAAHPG
Binder,A450 as % of hEphA4-SEAP-His [1],A450 as % of hEphA4-SEAP-His [2],A450 as % of hEphA4-SEAP-His [3],A450 as % of hEphA4-SEAP-His [4],A450 as % of hEphA4-SEAP-His [5],A450 as % of hEphA4-SEAP-His [6]
"humanized antibody No. 71 (antibody, human IgG1, kappa, human Ig kappa; also called L2-4/HA4) heavy: QIQLVQSGSELKKPGASVKVSCKASGYTFTDYSMHWVRQAPGQGLKWMGWINTETGEPTYAQGFTGRFVFSLDTSVSTAYLQISSLKAEDTAVYYCARIPLYYYGSRYWYFDVWGQGTTVTVSSASTKGPSVFPLAPSSKSTSGGTAALGCLVKDYFPEPVTVSWNSGALTSGVHTFPAVLQSSGLYSLSSVVTVPSSSLGTQTYICNVNHKPSNTKVDKRVEPKSCDKTHTCPPCPAPPAAAPSVFLFPPKPKDTLMISRTPEVTCVVVDVSHEDPEVQFNWYVDGVEVHNAKTKPREEQFNSTFRVVSVLTVVHQDWLNGKEYKCKVSNKGLPAPIEKTISKTKGQPREPQVYTLPPSREEMTKNQVSLTCLVKGFYPSDIAVEWESNGQPENNYKTTPPMLDSDGSFFLYSKLTVDKSRWQQGNVFSCSVMHEALHNHYTQKSLSLSPG light: EIVMTQSPATLSVSPGERATLSCRASENIYRNLAWYQQKPGQSPRLLIYAATNLADGIPARFSGSGSGTEYTLTISSLQSEDFAVYYCQHFWGTPWTFGQGTKVEIKRTVAAPSVFIFPPSDEQLKSGTASVVCLLNNFYPREAKVQWKVDNALQSGNSQESVTEQDSKDSTYSLSSTLTLSKADYEKHKVYACEVTHQGLSSPVTKSFNRGEC",5.3%,5.7%,5.5%,9.2%,5.3%,5.6%
"humanized antibody No. 73 (antibody, human IgG1, kappa, human Ig kappa; also called L2-4/HK4) heavy: QIQLVQSGSELKKPGASVKVSCKASGYTFTDYSMHWVRQAPGQGLKWMGWINTETGEPTYADDFKGRFVFSLDTSVSTAYLQISSLKAEDTAVYYCARIPLYYYGSRYWYFDVWGQGTTVTVSSASTKGPSVFPLAPSSKSTSGGTAALGCLVKDYFPEPVTVSWNSGALTSGVHTFPAVLQSSGLYSLSSVVTVPSSSLGTQTYICNVNHKPSNTKVDKRVEPKSCDKTHTCPPCPAPPAAAPSVFLFPPKPKDTLMISRTPEVTCVVVDVSHEDPEVQFNWYVDGVEVHNAKTKPREEQFNSTFRVVSVLTVVHQDWLNGKEYKCKVSNKGLPAPIEKTISKTKGQPREPQVYTLPPSREEMTKNQVSLTCLVKGFYPSDIAVEWESNGQPENNYKTTPPMLDSDGSFFLYSKLTVDKSRWQQGNVFSCSVMHEALHNHYTQKSLSLSPG light: EIVMTQSPATLSVSPGERATLSCRASENIYRNLAWYQQKPGQSPRLLIYAATNLADGIPARFSGSGSGTEYTLTISSLQSEDFAVYYCQHFWGTPWTFGQGTKVEIKRTVAAPSVFIFPPSDEQLKSGTASVVCLLNNFYPREAKVQWKVDNALQSGNSQESVTEQDSKDSTYSLSSTLTLSKADYEKHKVYACEVTHQGLSSPVTKSFNRGEC",5.6%,5.7%,5.6%,7.4%,5.6%,5.8%

# Continued, values first:
A450 as % of hEphA4-SEAP-His [1],A450 as % of hEphA4-SEAP-His [2],A450 as % of hEphA4-SEAP-His [3],A450 as % of hEphA4-SEAP-His [4],A450 as % of hEphA4-SEAP-His [5],A450 as % of hEphA4-SEAP-His [6],Binder
4.5%,4.2%,4.7%,7%,4.7%,4.4%,"humanized antibody No. 95 (antibody, human IgG1, kappa, human Ig kappa; also called L2-4/HK1) heavy: QVQLVQSGSELKKPGASVKVSCKASGYTFTDYSMHWVRQAPGQGLEWMGWINTETGEPTYADDFKGRFVFSLDTSVSTAYLQISSLKAEDTAVYYCARIPLYYYGSRYWYFDVWGQGTTVTVSSASTKGPSVFPLAPSSKSTSGGTAALGCLVKDYFPEPVTVSWNSGALTSGVHTFPAVLQSSGLYSLSSVVTVPSSSLGTQTYICNVNHKPSNTKVDKRVEPKSCDKTHTCPPCPAPPAAAPSVFLFPPKPKDTLMISRTPEVTCVVVDVSHEDPEVQFNWYVDGVEVHNAKTKPREEQFNSTFRVVSVLTVVHQDWLNGKEYKCKVSNKGLPAPIEKTISKTKGQPREPQVYTLPPSREEMTKNQVSLTCLVKGFYPSDIAVEWESNGQPENNYKTTPPMLDSDGSFFLYSKLTVDKSRWQQGNVFSCSVMHEALHNHYTQKSLSLSPG light: EIVMTQSPATLSVSPGERATLSCRASENIYRNLAWYQQKPGQSPRLLIYAATNLADGIPARFSGSGSGTEYTLTISSLQSEDFAVYYCQHFWGTPWTFGQGTKVEIKRTVAAPSVFIFPPSDEQLKSGTASVVCLLNNFYPREAKVQWKVDNALQSGNSQESVTEQDSKDSTYSLSSTLTLSKADYEKHKVYACEVTHQGLSSPVTKSFNRGEC"
4.9%,5%,5%,7.1%,4.9%,5%,"humanized antibody No. 93 (antibody, human IgG1, kappa, human Ig kappa; also called L2-4/HA1) heavy: QVQLVQSGSELKKPGASVKVSCKASGYTFTDYSMHWVRQAPGQGLEWMGWINTETGEPTYAQGFTGRFVFSLDTSVSTAYLQISSLKAEDTAVYYCARIPLYYYGSRYWYFDVWGQGTTVTVSSASTKGPSVFPLAPSSKSTSGGTAALGCLVKDYFPEPVTVSWNSGALTSGVHTFPAVLQSSGLYSLSSVVTVPSSSLGTQTYICNVNHKPSNTKVDKRVEPKSCDKTHTCPPCPAPPAAAPSVFLFPPKPKDTLMISRTPEVTCVVVDVSHEDPEVQFNWYVDGVEVHNAKTKPREEQFNSTFRVVSVLTVVHQDWLNGKEYKCKVSNKGLPAPIEKTISKTKGQPREPQVYTLPPSREEMTKNQVSLTCLVKGFYPSDIAVEWESNGQPENNYKTTPPMLDSDGSFFLYSKLTVDKSRWQQGNVFSCSVMHEALHNHYTQKSLSLSPG light: EIVMTQSPATLSVSPGERATLSCRASENIYRNLAWYQQKPGQSPRLLIYAATNLADGIPARFSGSGSGTEYTLTISSLQSEDFAVYYCQHFWGTPWTFGQGTKVEIKRTVAAPSVFIFPPSDEQLKSGTASVVCLLNNFYPREAKVQWKVDNALQSGNSQESVTEQDSKDSTYSLSSTLTLSKADYEKHKVYACEVTHQGLSSPVTKSFNRGEC"
